# The nanobody polyreactivity screen of Harvey et al. (2022)
# Experiment: yeast display, Sf9 membrane polyspecificity reagent, FACS + sequencing; frameworks hold sequencing errors
# Summary of the method: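 A synthetic nanobody library was expressed on Saccharomyces cerevisiae BJ5465 by galactose induction for 36–48 hours. The library was stained for 1 hour at 4 °C with 10% biotinylated, detergent-solubilized Sf9 membrane reagent and enriched with streptavidin microbeads before FACS. Low and high (top ~1%) gates were set on anti-HA fluorescence for expression and streptavidin fluorescence for reagent binding, and each polyreactivity label reflects the gate of origin.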
row,Sequence,polyreactivity (PSR sort gate)
1,QVQLVESGGGLVQAGGSLRLSCAASGSTFQRYAKGWYRQAPGKEWELVAGITGSVGRTYYADSVKGRFTISRDNAKNTVDLQMNSLKPQATAVSYCAADGRTWLYYGTRRDYWGQGTQVTVSS,high polyreactivity
2,QVQLVESGGGLVQAGGSLRLSCAASGFIFRYYAMGWSRQAPGIEMELVAAINASGGRTYYADSVKGRFTISRDNARNTVYLQMNSLKPEDTAVYYCAAYRSYQTFDYWGQGTQVTVSS,high polyreactivity
3,QVQLVESGGGLVQAGGRLRLSCAASGSTFIDYAMGWYIHAPGKERELVAAITWDGSSTYYADSVKGRFTISRDNAKNTVYLQMNSLKPEDTAVYYCATDYAGQYPVDGQPIHDYWGQGTQVTVSS,low polyreactivity
4,QVQLVESGGGLVQAGGSLRLSCAASGRTIRWNAMGWYRQAPGKERELVAAITSRGGSTYYADSVKGRFTISRDNAKNTVYLQMNSLKPEDTAVYYCAKQPKPPPVTGYDYWGQGTQVTVSS,high polyreactivity
5,QVQLVESGGGLVQAGGSLRLSCAASVRTFYRYAMGGYRQAPGKERELDAGISWRGGSTYYADSVKGRFTISRDNAKNTVYLQMNSLKPEDTAVYYCNAVTTPARTRLFKTVPYEYWGQGTQVTVSS,high polyreactivity
6,QVQLVESGGGLVQAGGSLRLSCAASGFIFASYAMGWYRQAPGTERELVAAISWRGGSTYYADSVKGRFTISRDNAKNTVYLQMNSLKPEDTAVYYCNAYGYDGTGRGYDTLDYWGQGTQVTVSS,low polyreactivity
7,QDQLVESGGGLVQAGGSLRLSCAASGRIFRTYAMGWYRQAPRQERELVAAIRSGGSTKYADSVKGRFTISRDNAKNTVYLQMKSLKPEDTAVYYCAAAVLGRYSAGDGYWGQGTQVTVSS,low polyreactivity
8,QVQLVETGGGLVQAGGSLRLSCAASGIIFFYYGMGWYRQAPGKERELVARISSGGSTNYADSVKGRFTISRDNAKNTVYLHMNSLKQEDTAVYYCAARISTRYGYWGPGTQVTVSS,low polyreactivity
9,QDQHVESVGGLVQAGGSLRLSCAASGRTFYRYAMGWSRQAPGKEREFVAAISHGGSNTRYADSVKGRFTISRDNAKNTVYLQMKSLKPEDTAVYYCAARAYQHYNWGQGTQVTVSS,high polyreactivity
10,QVQLVESGGGLVQAGGSLRLSCAASGLTLGSYTMGWYRQAPGKERELVAAIRKRGSSSYYADSVKGRFTISRDNAKNTVYLQMISQKPEDTAVYYCATDVASYWYRFFWRYGYWGQGTQVTVSS,low polyreactivity
11,QVQLVESGGGLVQAGGSLRISCAASGSTFRWYAMGWYRQAPGKEREFVAAITWSGGRTYYADSVKGRFTISRDNAKNTVYLQMNSLKPEDTAVYYGNADDYGDSFNYWGQGTQVTVSS,high polyreactivity
12,QVQLVESGGGLDQAGGSLRLSCAASGITFYRYVKGWYRQAPGKEREYVAAINWSTGTTNYADSVKGRFTISRDNAKNTVYFQMNILKPEDTAVYYCNARYRLRYIYSLRYDYWGQGTHVTVSS,high polyreactivity
13,QLQLVKSWGGLVQAGGSLRLSSAASGLTFELYDMGWYRQAPGKERELVAAIDWSATRTYYADSVKGRFTISRDNAKNTVYLQMNSLKPEDTEVYYCNAEAVYEYWIYDYWGQGTQVTVSS,high polyreactivity
14,HVQLVESGGGLVQAGGSLRLSCAASGGIFSYYAMGWFRQAPGKERELVAAISSRGTNTHYADSVKGRFTISRDNAKNTVDLQMNSLKPEDTAVYYCAADKRASPIYDWGQGTQVTVSS,high polyreactivity
15,QVQLVESGGGLVEAGGSLRLSCAASGRIFRYNAMGWYRQAPGKEWELVAAITASGGRTYYADSVKGRFTISRDNAKNTVYLQMNSLKPDDTAVYYCAATAFDKLKVWYSYWRQGTQVTVSS,high polyreactivity
16,QGQLVESGGGLVQAGGSLRLSCAASGGIFKAYAMGWYRQAPGQERELVAVITIGGRTTYADSVKGRFTISRDNAKNTVYLQMNSLKPEDTAVYYCAKTNYNWLSTAEHDYWGQGTQVTVSS,low polyreactivity
17,QVQLVESGGGLVQAGGSLRLSCAASGSIFNNNAMGWYRQAPGKERELVADITASGGNTNYADSVKGRFTISRDNAKNTVYLQMNSLKPEDTAVYYCNAGGFYGTLFFPLDIYYVGYDYWGQGTQVTVSS,low polyreactivity
18,QVQLVDSGGGLVQAGGSLRLSCAASGLTFQWYTMGWYRPAPGKERELVAAISSRGGSTYYADSVKGRFTISRDNAKNTVYLQMNSLKPEDTAVYYCAAVSGWEHRYDYWGQGTLVTVSS,high polyreactivity
19,QVQLVESGGGLVQAGGSLRLSCAASGSTFYYYAMGWYRQAPGKERELVAAIDTSVDSTYYADSVKGRFTISRDNAKNTVYLQMNSLKPEDTAVYYCNARSRTGYTNRMYYWGQGTQVTVSS,high polyreactivity
20,QVQLVESGGGLVQAGGSLRLTCAASGSTFYYYTMGWYRQAPWKERELVAAITSAGSTHYADSVKGRFTISRDNAKNNVYLQMNSLKPEDTAVYYCAAKSHWWWRGYYYWGQGTQVTVSS,high polyreactivity
21,QVQLVESGGGLLQAGGSLRLSCAASGIIFGRYTMGWYRKAPGKETELVAAITSSGITYYADSVKGRFTISRDNAKNTVYLQMNSLKPEDTAVYYCYADYSIPGYYWPYDYWGQGTQVTVSS,low polyreactivity
22,QVQLVESGGGLVQAGGSLRLSCAASGLIFSGYAMGWYRQAPGKDRELVAALTRRGSRTYYADSVKGRFTISRDNAKNTVYLQMNSLKPEDTAVYYCAADRFQGRDDYWGQGTQVTVSS,high polyreactivity

row,Sequence,polyreactivity (PSR sort gate)
1,QVQLVESGGGLVQEGGSLSLSCAASGITFRSYTMGWYRQAPGKERELLAGITRRGGSTFYADSVKGRFTISRDNATNTVYLQMNSLNPEDTAVYFCAVGFYYLSSWYSYDYRGQGTQVTVSS,high polyreactivity
2,QVQLVEAGGGLVQAGGRLRLSCAASGSIFRRNAMGWYRQAPGTERELVASISSSGGSTYYADSVKGRFTLSRDNAMNTVYLQMNSLKPEDTAVYYCNAYRIRPGTPYGNGYYYWGQGTQVTGSS,high polyreactivity
3,QVQLVESGGGLVQAGGSLRLSCAASGRIFYSYAMGWYRQAPGKESELVAAIRSTGSTNYADSVKGRFTISRDNAKNTVYLQMNSLKPEDTAVYYCAARTSYRSSLFGYWGQGTQVTVSS,high polyreactivity
4,QVQLVESGGGLVQAGGSLRLSCAASGSTFVYNAMGWYRQAPGKERELVAAITNSGSTYYADSVKGRFTISRDNAKNTVYLQMNSLKPEDTAVYDCAARSRVYWARSGYWGQGTQVTVAS,low polyreactivity
5,QVQLVESGGGLVQAGGSLRLSCAASGSTFRGNDMGWYRQAPGKERELVASIDWSGGSTYYADSVKGRFTISRDNAKNTVYLQMNSLKPEDTAVYYCAADTSYWYDYYIDYVGYYYWGQGTQVTVSS,high polyreactivity
6,QVQLVESGGGLVQAGGSLRLSCAASGRIFRYYAMGWYRQAPGKERELVAAITAGGGTTYYADSVKGRFTISRDNAKNTVYLQMNSLKPEDTAVYYWAKDGRYYSHYNYWGQGTQVTVSS,high polyreactivity
7,QDQLVESGGGLVQAGGSLRLICAASGITFFGYVMGWYRQAPGKERELVAAINSRGGNTYYADSVKGRFTSSRDNAKNTVYLQMNSLKPEDTAVYYCAASNGYQAVTYDYWGQGTQVTVSS,high polyreactivity
8,QVQLVDSGGGLVQAGGSLRLSCAASGRTFPSYVMGWYRQAPGKERELVAAISWSGGSTSYADSVKGRFTISRDNAKNTVYLQMNSLKPEDTAVYYCNADRRPGGDYWGQGTQVTVSS,low polyreactivity
9,QVQLVESGGGIVQAGGSLRLSCAASGSIVRGYAMGWYRQAPGKERELVAAITFSGGSTYADSVKGRFTISRDNAKNTVYLQMNSLKPEDTAVYYCAAKRTGHNWFTVYPYYSWGQGTQVTVSS,low polyreactivity
10,QVQLVESGGGLVQAGGSLRVSCASSGRIFVYDMGWYRQAPGKERELVAAITRGGSTKYADSVKGRFTISRDNAKNTVFLQMNSLKPADTAVYYCAADTRRYRFYYWGQGTQVSVSS,high polyreactivity
11,QVQLVESGGGLVQAGGSLRLICDASGRIFGDNAMGWYRQAPGKEREFVATINGSGGSTYYADSVKGRFTISRDNAKNTVYLQMNSLKPEVTAVYYCFVQQNYGYDYWGQGTQVTVSS,low polyreactivity
12,QVQLVESGGGLVQAGGSLRLSCAASGLIFRGNAMGWYRQAPGKERELVAGITRGGSTYYADSVKGRFTISRDNAKNTVYLQMNSLKPEDTAVYYCAAAFRDGFTRRYGYWGQGTQVTVSS,high polyreactivity
13,QVQLVESGGGLVQAGGSLRLSCAASGRIFSYYTMGWYRQAPGKEREFVAAISWNDGSTYYADSVKGRFTISRDNSKNTVYLQMNSLKPEDTAVYYCAAEYHYFWWRMDYWGQGTQVTVSS,high polyreactivity
14,QVQLVESGGGLVQAGGSLRLSCAASGSTFPYYAMGWYRQAPGKERELVAAISSSGGSTYYADSVKGRFTISRDNANNTVYLQMNSLKPEDTAVYYCATSSLYRYWHRYDYWGQGTQVTVSS,high polyreactivity
15,QVQLVESGGGLVQAGGSLRLSCAASGSIFVSNAMGWYRQAPGKERELVAAISQSGGSTYYADSVKGRFTISRDNAKNTVYLQMNSLKPEDTAVYYCATPIRSGFRIYDYWGQGTQVTVSS,low polyreactivity
16,QVQLVESGGGLVQAGGSLRLSCAASGITFPYNAMGWYRQAPGKERELVASINSGDSTNYADSVKGRFTISRDNAKNTVYLQMNSLKPEDTAVYYCAAADYWHYKYDYWGQGTQVTVSS,low polyreactivity
17,QVQLVESGGGLVQAGGSLRLSCAASGRTFWYYAMGWYRQAPGKERELVARISTGGSTNYADSVKGRFTISRDNAKNTVYLQMNSLKPEDTAVYYCAARPVWRRPSKFDYWGQGTQVTVSS,high polyreactivity
18,QVQLVESGGGVVQAGGSLRLSCAASGSTAIYYTMGWYRQAPGKERELVAYADSVKGRFTISRDNAKTTVYLQMNSLKPEDTAVYSCAAPRTYYSELTSPYDYWGQGTQVTVSS,low polyreactivity
19,QVQLQESGGGQVQAGGSLRLSCAASGTIFLYAFMAWYRQAPGKEPKLVAAIDVGTTTKYADSVKGRFTISRDNAKNTVYLQMNSLKPEDTAVYYCAAYLCYLDDLGYWGQGTQVTVSS,low polyreactivity
20,QVQLVESGGGLVQAGGSLRLSCAASGSTFSSYAMGWYRQAPGKERELVAAINWSGTRTYYADSVKGRFTISRDNAKNTVYLQMNSLKPEDTAVYYCAAVLSLSSRQGVITKGDYWGQGTQVTVSS,low polyreactivity
21,QVQLVESGGGLVQAGGSLRLSCAASGRIFAYYTMGWYRQAPGKERELVAAISGSSGRTYYADSVKGRFTISRDNAKNTVYLQMNSLKPEDTAVYYCAARGFSFWRYYYWGQGTQVTVSS,high polyreactivity
